Data reported in article PMC6555819, “Comprehensive study of nuclear receptor DNA binding provides a revised framework for understanding receptor specificity”.
Where a chain is given by its changes, count along the chain named.

B1: NRC3_wobSeed36_DR1_A16C_o1 (dsDNA)
DNA 1: GCCCGACTGGGGCAACGGTTACCATACTCAGTACGAGCGATTGACAGCGTAGAATGAAGG
DNA 2: CCTTCATTCTACGCTGTCAATCGCTCGTACTGAGTATGGTAACCGTTGCCCCAGTCGGGC
B2: NRC3_random_hg19_313_o1 (dsDNA)
DNA 1: GCACTACATAAGTAATCATCTCCCTCTGCAACTGGGGCGATTGACAGCGTAGAATGAAGG
DNA 2: CCTTCATTCTACGCTGTCAATCGCCCCAGTTGCAGAGGGAGATGATTACTTATGTAGTGC
B3: NRC3_wobSeed123_DR5_G21T_o1 (dsDNA)
DNA 1: GCCCTCGGAGGACAACAGGATGTCAGAGCTGCCAGAGCGATTGACAGCGTAGAATGAAGG
DNA 2: CCTTCATTCTACGCTGTCAATCGCTCTGGCAGCTCTGACATCCTGTTGTCCTCCGAGGGC
B4: NRC3_random_hg19_328_o1 (dsDNA)
DNA 1: GCACTTAGAGCCCAGGAGCTTGAGGTCGCAGCTACTGCGATTGACAGCGTAGAATGAAGG
DNA 2: CCTTCATTCTACGCTGTCAATCGCAGTAGCTGCGACCTCAAGCTCCTGGGCTCTAAGTGC
B5: NRC3_random_hg19_51_o1 (dsDNA)
DNA 1: GCGAGAAAGCTGAACTGTCACTCTTTGCTGATGATGGCGATTGACAGCGTAGAATGAAGG
DNA 2: CCTTCATTCTACGCTGTCAATCGCCATCATCAGCAAAGAGTGACAGTTCAGCTTTCTCGC
B6: NRC3_random_hg19_168_o1 (dsDNA)
DNA 1: GCACAGAAATGAAATGGGCTATAGAGCTCATCTTCTGCGATTGACAGCGTAGAATGAAGG
DNA 2: CCTTCATTCTACGCTGTCAATCGCAGAAGATGAGCTCTATAGCCCATTTCATTTCTGTGC
B7: NRC3_wobSeed93_DR3_C13G_o1 (dsDNA)
DNA 1: GCAGTCAAAGTTGATCTAGGTAACGTAAGATATGCTGCGATTGACAGCGTAGAATGAAGG
DNA 2: CCTTCATTCTACGCTGTCAATCGCAGCATATCTTACGTTACCTAGATCAACTTTGACTGC
B8: NRC3_wobSeed28_DR1_T19A_o1 (dsDNA)
DNA 1: GCCCTACTGGGCCAAAGGACATTGATTCCAATGCTCGCGATTGACAGCGTAGAATGAAGG
DNA 2: CCTTCATTCTACGCTGTCAATCGCGAGCATTGGAATCAATGTCCTTTGGCCCAGTAGGGC
B9: NRC3_wobSeed28_DR1_T19C_o1 (dsDNA)
DNA 1: B8 DNA 1 with A19C
DNA 2: B8 DNA 2 with T42G
B10: NRC3_random_hg19_229_o1 (dsDNA)
DNA 1: GCTAAACTGTATCCACTTACCTTTCTCAGAACCTTTGCGATTGACAGCGTAGAATGAAGG
DNA 2: CCTTCATTCTACGCTGTCAATCGCAAAGGTTCTGAGAAAGGTAAGTGGATACAGTTTAGC
B11: NRC3_wobSeed62_DR2_T16G_o1 (dsDNA)
DNA 1: GCTCTGCTAGGTCAGGTGGTCAGCTAACGAGCTGCCGCGATTGACAGCGTAGAATGAAGG
DNA 2: CCTTCATTCTACGCTGTCAATCGCGGCAGCTCGTTAGCTGACCACCTGACCTAGCAGAGC
B12: NRC3_wobSeed135_DR5_C13G_o1 (dsDNA)
DNA 1: GCCGAACTAGGTGATTGACAGGACAGTGAATAGTAAGCGATTGACAGCGTAGAATGAAGG
DNA 2: CCTTCATTCTACGCTGTCAATCGCTTACTATTCACTGTCCTGTCAATCACCTAGTTCGGC
B13: NRC3_wobSeed125_DR5_A14C_o1 (dsDNA)
DNA 1: GCCCTTACGGGTCCCTGACAGGTTATAGCATTTGGAGCGATTGACAGCGTAGAATGAAGG
DNA 2: CCTTCATTCTACGCTGTCAATCGCTCCAAATGCTATAACCTGTCAGGGACCCGTAAGGGC
B14: NRC3_random_hg19_159_o1 (dsDNA)
DNA 1: GCGGTTCAACATTCAGCAAACATTGGATGATAGTTTGCGATTGACAGCGTAGAATGAAGG
DNA 2: CCTTCATTCTACGCTGTCAATCGCAAACTATCATCCAATGTTTGCTGAATGTTGAACCGC
B15: NRC3_random_hg19_410_o1 (dsDNA)
DNA 1: GCTAACGAATGATCTTTCTAATGTGTTGTTGAATTCGCGATTGACAGCGTAGAATGAAGG
DNA 2: CCTTCATTCTACGCTGTCAATCGCGAATTCAACAACACATTAGAAAGATCATTCGTTAGC
B16: NRC3_wobSeed110_DR4_A9T_o1 (dsDNA)
DNA 1: GCTCTGCTTGGTCAACGATGGTCAGCTAATCTGCTAGCGATTGACAGCGTAGAATGAAGG
DNA 2: CCTTCATTCTACGCTGTCAATCGCTAGCAGATTAGCTGACCATCGTTGACCAAGCAGAGC
B17: NRC3_wobSeed110_DR4_G10T_o1 (dsDNA)
DNA 1: B16 DNA 1 with T9A, G10T
DNA 2: B16 DNA 2 with C51A, A52T
B18: NRC3_wobSeed57_DR2_T19G_o1 (dsDNA)
DNA 1: GCATCTCTAGGTAACAAGGTCAGTGAAAGAGAGGACGCGATTGACAGCGTAGAATGAAGG
DNA 2: CCTTCATTCTACGCTGTCAATCGCGTCCTCTCTTTCACTGACCTTGTTACCTAGAGATGC
B19: NRC3_wobSeed10_DR0_A9T_o1 (dsDNA)
DNA 1: GCATCGAATGGTCGAGGTGAGTATAGAGAAAGGGAAGCGATTGACAGCGTAGAATGAAGG
DNA 2: CCTTCATTCTACGCTGTCAATCGCTTCCCTTTCTCTATACTCACCTCGACCATTCGATGC
B20: NRC3_wobSeed101_DR4_C13A_o1 (dsDNA)
DNA 1: GCCCTTACGGGTAACTCCAGGTTATAGCATCGGAGTGCGATTGACAGCGTAGAATGAAGG
DNA 2: CCTTCATTCTACGCTGTCAATCGCACTCCGATGCTATAACCTGGAGTTACCCGTAAGGGC
B21: NRC3_random_hg19_224_o1 (dsDNA)
DNA 1: GCCTTCCTAACTGAATCACCTCATCAACAGCTAAACGCGATTGACAGCGTAGAATGAAGG
DNA 2: CCTTCATTCTACGCTGTCAATCGCGTTTAGCTGTTGATGAGGTGATTCAGTTAGGAAGGC
B22: NRC3_wobSeed114_DR4_A14C_o1 (dsDNA)
DNA 1: GCAATACAGGGTCCTCGTAGGCCAGAGTACGCACAGGCGATTGACAGCGTAGAATGAAGG
DNA 2: CCTTCATTCTACGCTGTCAATCGCCTGTGCGTACTCTGGCCTACGAGGACCCTGTATTGC
B23: NRC3_wobSeed45_DR1_T11C_o1 (dsDNA)
DNA 1: GCTGTCAAAGCTCAAAGGTAACGTAAGTATCCACACGCGATTGACAGCGTAGAATGAAGG
DNA 2: CCTTCATTCTACGCTGTCAATCGCGTGTGGATACTTACGTTACCTTTGAGCTTTGACAGC
B24: NRC3_random_hg19_1_o1 (dsDNA)
DNA 1: GCGTGTTTGATTCTCATTGTCACCTTCTCTAGGCCTGCGATTGACAGCGTAGAATGAAGG
DNA 2: CCTTCATTCTACGCTGTCAATCGCAGGCCTAGAGAAGGTGACAATGAGAATCAAACACGC
B25: NRC3_wobSeed99_DR4_G20C_o1 (dsDNA)
DNA 1: GCTCTCGGAGGACACGAAACGTCAGAGCTCGACATCGCGATTGACAGCGTAGAATGAAGG
DNA 2: CCTTCATTCTACGCTGTCAATCGCGATGTCGAGCTCTGACGTTTCGTGTCCTCCGAGAGC
B26: NRC3_wobSeed63_DR2_G10A_o1 (dsDNA)
DNA 1: GCCGAACTAAGTCACCAGGACAGTGAAGAGGTTGGAGCGATTGACAGCGTAGAATGAAGG
DNA 2: CCTTCATTCTACGCTGTCAATCGCTCCAACCTCTTCACTGTCCTGGTGACTTAGTTCGGC
B27: NRC3_wobSeed82_DR3_G10C_o1 (dsDNA)
DNA 1: GCATCGAAACGTCGACGAGGTGAGTATACACCGTTTGCGATTGACAGCGTAGAATGAAGG
DNA 2: CCTTCATTCTACGCTGTCAATCGCAAACGGTGTATACTCACCTCGTCGACGTTTCGATGC
B28: NRC3_wobSeed72_DR2_G17T_o1 (dsDNA)
DNA 1: GCTCGAGTAGGTTACGTGGGCATTCAGGGATGAAGAGCGATTGACAGCGTAGAATGAAGG
DNA 2: CCTTCATTCTACGCTGTCAATCGCTCTTCATCCCTGAATGCCCACGTAACCTACTCGAGC
B29: NRC3_wobSeed6_DR0_G17T_o1 (dsDNA)
DNA 1: GCCCTAGCAGGCCAGGTTCACTCAAGCATTTCGCTTGCGATTGACAGCGTAGAATGAAGG
DNA 2: CCTTCATTCTACGCTGTCAATCGCAAGCGAAATGCTTGAGTGAACCTGGCCTGCTAGGGC
B30: NRC3_wobSeed58_DR2_G10T_o1 (dsDNA)
DNA 1: GCATCGAAATGTCGTGAGGTGAGTATACAGAAAGGCGCGATTGACAGCGTAGAATGAAGG
DNA 2: CCTTCATTCTACGCTGTCAATCGCGCCTTTCTGTATACTCACCTCACGACATTTCGATGC
B31: NRC3_wobSeed58_DR2_G10C_o1 (dsDNA)
DNA 1: B30 DNA 1 with T10C
DNA 2: B30 DNA 2 with A51G
B32: NRC3_wobSeed16_DR0_G11T_o1 (dsDNA)
DNA 1: GCCAGCCTAGTTCAGGGCCAGTATAGGAGGAACGTTGCGATTGACAGCGTAGAATGAAGG
DNA 2: CCTTCATTCTACGCTGTCAATCGCAACGTTCCTCCTATACTGGCCCTGAACTAGGCTGGC
B33: NRC3_wobSeed136_DR5_G11C_o1 (dsDNA)
DNA 1: GCTAGCCTAGCTCATTCAGGGGCCAGTATAGAAAGCGCGATTGACAGCGTAGAATGAAGG
DNA 2: CCTTCATTCTACGCTGTCAATCGCGCTTTCTATACTGGCCCCTGAATGAGCTAGGCTAGC

Target: RARg:RXRa (Homo sapiens, UniProt P13631;P19793 full;full)
Sequence (P13631 whole entry, chain 1 of 2): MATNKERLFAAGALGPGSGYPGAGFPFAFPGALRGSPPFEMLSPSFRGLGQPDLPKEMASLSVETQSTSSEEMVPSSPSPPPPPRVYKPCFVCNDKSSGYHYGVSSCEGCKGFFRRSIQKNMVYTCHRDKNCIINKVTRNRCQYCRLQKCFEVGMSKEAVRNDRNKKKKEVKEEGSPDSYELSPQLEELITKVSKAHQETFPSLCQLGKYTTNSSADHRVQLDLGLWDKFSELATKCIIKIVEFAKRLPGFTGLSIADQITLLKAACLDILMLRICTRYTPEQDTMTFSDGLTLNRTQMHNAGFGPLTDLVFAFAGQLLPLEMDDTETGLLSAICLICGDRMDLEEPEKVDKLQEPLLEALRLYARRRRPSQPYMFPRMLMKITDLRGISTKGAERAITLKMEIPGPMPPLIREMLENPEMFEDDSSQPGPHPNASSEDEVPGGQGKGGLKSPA
Sequence (P19793 whole entry, chain 2 of 2): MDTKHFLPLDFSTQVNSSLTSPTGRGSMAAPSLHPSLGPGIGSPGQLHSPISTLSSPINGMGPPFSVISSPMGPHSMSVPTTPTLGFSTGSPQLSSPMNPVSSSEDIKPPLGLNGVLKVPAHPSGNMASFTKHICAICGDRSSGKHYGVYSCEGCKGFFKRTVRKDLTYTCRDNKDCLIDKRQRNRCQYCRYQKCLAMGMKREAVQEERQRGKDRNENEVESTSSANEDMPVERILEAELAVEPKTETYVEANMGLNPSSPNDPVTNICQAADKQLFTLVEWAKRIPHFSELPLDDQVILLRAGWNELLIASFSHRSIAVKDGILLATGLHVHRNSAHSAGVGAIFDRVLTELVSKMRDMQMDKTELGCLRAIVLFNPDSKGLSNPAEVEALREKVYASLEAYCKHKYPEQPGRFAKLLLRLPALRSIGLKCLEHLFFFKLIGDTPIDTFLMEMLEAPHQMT
Assay: no ligand; PBM; 270 nM : 90 nM RXRa; PBS pH 7.4, 2% milk, 0.02% Triton X-100, 1 mM DTT, BSA, 0.4 mg/ml salmon testes DNA
Conditions: tags: His kept;His cleaved; copies: 1;1; label: surface-attached array probe
Outline: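 Binding z-scores take random background probes as their reference. They come from custom Agilent 4×180K protein-binding microarrays incubated 1 h with ligand-free nuclear receptor dimers, with antibodies against each partner (one per run) detecting binding. Scanned fluorescence was regression-normalized.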

In order of falling binding signal:
1. B11  3.05 PBM z-score against 500 random probes
2. B18  3 PBM z-score against 500 random probes
3. B3  0.5 PBM z-score against 500 random probes
4. B23  0.5 PBM z-score against 500 random probes
5. B14  0.49 PBM z-score against 500 random probes
6. B27  0.46 PBM z-score against 500 random probes
7. B25  0.45 PBM z-score against 500 random probes
8. B10  0.44 PBM z-score against 500 random probes
9. B28  0.43 PBM z-score against 500 random probes
10. B8  0.42 PBM z-score against 500 random probes
11. B19  0.4 PBM z-score against 500 random probes
12. B32  0.39 PBM z-score against 500 random probes
13. B1  0.38 PBM z-score against 500 random probes
14. B21  0.38 PBM z-score against 500 random probes
15. B7  0.37 PBM z-score against 500 random probes
16. B13  0.36 PBM z-score against 500 random probes
17. B20  0.35 PBM z-score against 500 random probes
18. B12  0.33 PBM z-score against 500 random probes
19. B24  0.33 PBM z-score against 500 random probes
20. B9  0.32 PBM z-score against 500 random probes
21. B26  0.3 PBM z-score against 500 random probes
22. B16  0.29 PBM z-score against 500 random probes
23. B30  0.29 PBM z-score against 500 random probes
24. B31  0.27 PBM z-score against 500 random probes
25. B29  0.25 PBM z-score against 500 random probes
26. B22  0.23 PBM z-score against 500 random probes
27. B17  0.22 PBM z-score against 500 random probes
28. B2  0.18 PBM z-score against 500 random probes
29. B4  0.09 PBM z-score against 500 random probes
30. B15  0.07 PBM z-score against 500 random probes
31. B5  0.04 PBM z-score against 500 random probes
32. B6  -0.02 PBM z-score against 500 random probes
33. B33  -0.31 PBM z-score against 500 random probes
